Experiments:
Assay in all cases: purified protein
purified protein [1] = substrate: CC(=O)C(=O)O; assay type: biochemical, Rhizobium leguminosarum; details: APT reaction, co-substrate aspartate, 0.05 mM PLP, 100 mM phosphate pH 7.5, 30 °C
purified protein [2] = substrate: O=C(O)CCC(=O)C(=O)O; assay type: biochemical, Rhizobium leguminosarum; details: AKT reaction, co-substrate aspartate, 0.05 mM PLP, 100 mM phosphate pH 7.5, 30 °C
purified protein [3] = substrate: N[C@@H](CCC(=O)O)C(=O)O; assay type: biochemical, Rhizobium leguminosarum; details: GOT reaction, co-substrate oxaloacetate, 0.05 mM PLP, 100 mM NH4Cl, 100 mM phosphate pH 7.5, 30 °C
purified protein [4] = substrate: N[C@@H](CC(=O)O)C(=O)O; details: AKT reaction, co-substrate α-ketoglutarate, 0.05 mM PLP, 100 mM phosphate pH 7.5, 30 °C
purified protein [5] = substrate: O=C(O)CC(=O)C(=O)O; details: GOT reaction, co-substrate glutamate, 0.05 mM PLP, 100 mM NH4Cl, 100 mM phosphate pH 7.5, 30 °C

B1: AatA (Rhizobium leguminosarum bv. phaseoli) (protein)
chain: MAFLADALSRVKPSATIAVSQKARELKAKGRDVIGLGAGEPDFDTPDNIKKAAIDAINRGETKYTPVSGIPELRKAIAAKFKRENGLDYSWEQTIVGTGGKQILFNAFMATLNPGDEVSIPAPYWVSYPEMVALCGGTRFFVSATQEHNFKLQAADLEKAITPKTKWFIFNSPSNPTGAAYTHDELKALTDVLMKNPQVWVLTDDMYEHLTYGDFKFVTPVEVEPQLYDRTLTMNGVSKAYAMTGWRIGYAAGPIQLIKAMDMIQGQQTSGATSIAQWAAVEALNGTQDFIPENKKIFEGRRDLVVSMLNQAKGIVCPVPEGAFYVYPSCKGLIGKTAPSGKVIETDEDFVSELLESEGVAVVHGSAFGLGPNFRISYATSEEQLEEACRRIQRFCGACK
notes: recombinant from A34 gDNA in pET101/D-TOPO (pRU1152; vector with V5-tag and 6xHis), E. coli BL21 Star (DE3), His-Trap purified (histidine elution); expected homodimer; glycine at position 266
Purified protein [1]
  Km: 17000 ± 2000 µM
  kcat: 98.96 ± 4.37 s⁻¹
Purified protein [2]
  Km: 320 ± 20 µM
  kcat: 130.97 ± 2.18 s⁻¹
Purified protein [3]
  Km: 4430 ± 520 µM
  kcat: 163.71 ± 3.64 s⁻¹
Purified protein [4]
  Km: 1740 ± 320 µM
  kcat: 125.88 ± 5.09 s⁻¹
Purified protein [5]
  Km: 180 ± 30 µM
  kcat: 168.08 ± 6.55 s⁻¹

Reference: article PMC11286295, “Aspartate aminotransferase of Rhizobium leguminosarum has extended substrate specificity and metabolizes aspartate to enable N2 fixation in pea nodules” (Microbiology, 2024)
